Values of other authors in PMC7570734.
Where two headings read alike, the source gives them in different places.

Tests used:
[1] = molecular target: alpha-factor (Saccharomyces cerevisiae) (UniProt P01149)
[2] = molecular target: alpha-factor (Saccharomyces cerevisiae) (UniProt P01149); remark: listed apart in the source

Kd [1]: 17 nM
Kd [2]: > 150 nM
Substance: Ste2p (from UniProt D6VTK4)
